Assay results: publication PMC5490192, “An L-threonine transaldolase is required for L-threo-β-hydroxy-α-amino acid assembly during obafluorin biosynthesis” (Nature Communications, 2017)

Columns and labels:
His6-ObaG = molecular target: T1, His6-ObaG (Pseudomonas fluorescens, UniProt A0A1X9LWZ7); assay: UV/Vis absorption spectra; NaBH4 reduction of internal aldimine; type: binding; details: covalent (internal aldimine); pH 7.8; excess PLP removed
T1 construct: gene obiH
T1 sequence (A0A1X9LWZ7 1-440): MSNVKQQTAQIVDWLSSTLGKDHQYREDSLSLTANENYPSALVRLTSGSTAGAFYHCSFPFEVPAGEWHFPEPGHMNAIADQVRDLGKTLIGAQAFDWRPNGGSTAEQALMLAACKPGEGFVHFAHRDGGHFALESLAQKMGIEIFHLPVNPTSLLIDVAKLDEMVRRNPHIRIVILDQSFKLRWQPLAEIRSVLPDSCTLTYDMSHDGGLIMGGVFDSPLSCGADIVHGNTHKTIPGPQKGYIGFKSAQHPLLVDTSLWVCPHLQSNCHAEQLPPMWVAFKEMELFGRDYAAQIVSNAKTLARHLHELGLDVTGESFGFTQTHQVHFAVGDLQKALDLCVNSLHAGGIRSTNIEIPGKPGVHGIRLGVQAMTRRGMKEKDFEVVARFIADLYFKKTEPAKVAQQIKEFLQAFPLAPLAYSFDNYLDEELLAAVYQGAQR

[1] = substrate: C[C@@H](O)[C@H](N)C(=O)O; assay: discontinuous HPLC L-TTA assay, Michaelis-Menten fit; type: biochemical, Pseudomonas fluorescens; details: co-substrate 4-nitrophenylacetaldehyde (10 mM in standard assay), L-threonine 1–200 mM, 25 μM enzyme, pH 7.8, 27 °C, PLP 0.4 mM, MgCl2 15 mM, NaCl 300 mM

Cc1ncc(COP(=O)(O)O)c(C=O)c1O [pyridoxal-5′-phosphate]
UV/Vis absorption spectra; NaBH4 reduction of internal aldimine (His6-ObaG): these results strongly support ObaG being a PLP-dependent enzyme

B1: His6-ObaG (Pseudomonas fluorescens) (protein)
chain: T1 sequence (A0A1X9LWZ7 1-440)
Km [1]: 40.2 ± 3.8 mM | kcat [1]: 1.05 ± 0.0317 s⁻¹
